{
  "source": "paper PMC6255862",
  "about": "“A quaternary tetramer assembly inhibits the deubiquitinating activity of USP25” (Nature Communications, 2018)",
  "molecules": {"B1": {"name": "USP25FL (full-length human USP25), Q9UHP3 1-1055 (enzyme)", "chain": "MTVEQNVLQQSAAQKHQQTFLNQLREITGINDTQILQQALKDSNGNLELAVAFLTAKNAKTPQQEETTYYQTALPGNDRYISVGSQADTNVIDLTGDDKDDLQRAIALSLAESNRAFRETGITDEEQAISRVLEASIAENKACLKRTPTEVWRDSRNPYDRKRQDKAPVGLKNVGNTCWFSAVIQSLFNLLEFRRLVLNYKPPSNAQDLPRNQKEHRNLPFMRELRYLFALLVGTKRKYVDPSRAVEILKDAFKSNDSQQQDVSEFTHKLLDWLEDAFQMKAEEETDEEKPKNPMVELFYGRFLAVGVLEGKKFENTEMFGQYPLQVNGFKDLHECLEAAMIEGEIESLHSENSGKSGQEHWFTELPPVLTFELSRFEFNQALGRPEKIHNKLEFPQVLYLDRYMHRNREITRIKREEIKRLKDYLTVLQQRLERYLSYGSGPKRFPLVDVLQYALEFASSKPVCTSPVDDIDASSPPSGSIPSQTLPSTTEQQGALSSELPSTSPSSVAAISSRSVIHKPFTQSRIPPDLPMHPAPRHITEEELSVLESCLHRWRTEIENDTRDLQESISRIHRTIELMYSDKSMIQVPYRLHAVLVHEGQANAGHYWAYIFDHRESRWMKYNDIAVTKSSWEELVRDSFGGYRNASAYCLMYINDKAQFLIQEEFNKETGQPLVGIETLPPDLRDFVEEDNQRFEKELEEWDAQLAQKALQEKLLASQKLRESETSVTTAQAAGDPEYLEQPSRSDFSKHLKEETIQIITKASHEHEDKSPETVLQSAIKLEYARLVKLAQEDTPPETDYRLHHVVVYFIQNQAPKKIIEKTLLEQFGDRNLSFDERCHNIMKVAQAKLEMIKPEEVNLEEYEEWHQDYRKFRETTMYLIIGLENFQRESYIDSLLFLICAYQNNKELLSKGLYRGHDEELISHYRRECLLKLNEQAAELFESGEDREVNNGLIIMNEFIVPFLPLLLVDEMEEKDILAVEDMRNRWCSYLGQEMEPHLQEKLTDFLPKLLDCSMEIKSFHEPPKLPSYSTHELCERFARIMLSLSRTPADGR"}, "B2": {"name": "USP25NCD (human USP25, N-terminal domain and USP-like catalytic domain, Gln18 to Glu714) (enzyme, UniProt Q9UHP3 18-714, looked up)", "chain": "QTFLNQLREITGINDTQILQQALKDSNGNLELAVAFLTAKNAKTPQQEETTYYQTALPGNDRYISVGSQADTNVIDLTGDDKDDLQRAIALSLAESNRAFRETGITDEEQAISRVLEASIAENKACLKRTPTEVWRDSRNPYDRKRQDKAPVGLKNVGNTCWFSAVIQSLFNLLEFRRLVLNYKPPSNAQDLPRNQKEHRNLPFMRELRYLFALLVGTKRKYVDPSRAVEILKDAFKSNDSQQQDVSEFTHKLLDWLEDAFQMKAEEETDEEKPKNPMVELFYGRFLAVGVLEGKKFENTEMFGQYPLQVNGFKDLHECLEAAMIEGEIESLHSENSGKSGQEHWFTELPPVLTFELSRFEFNQALGRPEKIHNKLEFPQVLYLDRYMHRNREITRIKREEIKRLKDYLTVLQQRLERYLSYGSGPKRFPLVDVLQYALEFASSKPVCTSPVDDIDASSPPSGSIPSQTLPSTTEQQGALSSELPSTSPSSVAAISSRSVIHKPFTQSRIPPDLPMHPAPRHITEEELSVLESCLHRWRTEIENDTRDLQESISRIHRTIELMYSDKSMIQVPYRLHAVLVHEGQANAGHYWAYIFDHRESRWMKYNDIAVTKSSWEELVRDSFGGYRNASAYCLMYINDKAQFLIQEEFNKETGQPLVGIETLPPDLRDFVEEDNQRFEKELEEWDAQLAQKALQE", "notes": "USP25, human, residues 18-714 of the 1055-residue protein (Met1 to Arg1055); A His tag ahead of Smt3 is surmised from the Ni2+ purification; also called USP25NCD tetramer; USP25NCD dimer; not shown: Smt3, N-terminal, cleaved"}, "B3": {"name": "USP25NCD ΔIL (USP25 18-714 with the IL-loop, Cys465 to Pro537, replaced by Gly-Ser-Gly) (enzyme, human)", "chain": "QTFLNQLREITGINDTQILQQALKDSNGNLELAVAFLTAKNAKTPQQEETTYYQTALPGNDRYISVGSQADTNVIDLTGDDKDDLQRAIALSLAESNRAFRETGITDEEQAISRVLEASIAENKACLKRTPTEVWRDSRNPYDRKRQDKAPVGLKNVGNTCWFSAVIQSLFNLLEFRRLVLNYKPPSNAQDLPRNQKEHRNLPFMRELRYLFALLVGTKRKYVDPSRAVEILKDAFKSNDSQQQDVSEFTHKLLDWLEDAFQMKAEEETDEEKPKNPMVELFYGRFLAVGVLEGKKFENTEMFGQYPLQVNGFKDLHECLEAAMIEGEIESLHSENSGKSGQEHWFTELPPVLTFELSRFEFNQALGRPEKIHNKLEFPQVLYLDRYMHRNREITRIKREEIKRLKDYLTVLQQRLERYLSYGSGPKRFPLVDVLQYALEFASSKPVGSGRHITEEELSVLESCLHRWRTEIENDTRDLQESISRIHRTIELMYSDKSMIQVPYRLHAVLVHEGQANAGHYWAYIFDHRESRWMKYNDIAVTKSSWEELVRDSFGGYRNASAYCLMYINDKAQFLIQEEFNKETGQPLVGIETLPPDLRDFVEEDNQRFEKELEEWDAQLAQKALQE", "notes": "USP25, human, from Gln18 to the residue before the deletion (deletion from Cys465 to Pro537); three-amino-acid linker Gly-Ser-Gly in place of the deleted stretch; USP25, human, from the residue after the deletion to Glu714; also called ΔIL USP25NCD; USP25NCD ∆IL; not shown: Smt3, N-terminal, cleaved"}, "B4": {"name": "USP25FL ΔIL (full-length USP25 with the IL-loop, Cys465 to Pro537, replaced by Gly-Ser-Gly) (enzyme, human)", "chain": "MTVEQNVLQQSAAQKHQQTFLNQLREITGINDTQILQQALKDSNGNLELAVAFLTAKNAKTPQQEETTYYQTALPGNDRYISVGSQADTNVIDLTGDDKDDLQRAIALSLAESNRAFRETGITDEEQAISRVLEASIAENKACLKRTPTEVWRDSRNPYDRKRQDKAPVGLKNVGNTCWFSAVIQSLFNLLEFRRLVLNYKPPSNAQDLPRNQKEHRNLPFMRELRYLFALLVGTKRKYVDPSRAVEILKDAFKSNDSQQQDVSEFTHKLLDWLEDAFQMKAEEETDEEKPKNPMVELFYGRFLAVGVLEGKKFENTEMFGQYPLQVNGFKDLHECLEAAMIEGEIESLHSENSGKSGQEHWFTELPPVLTFELSRFEFNQALGRPEKIHNKLEFPQVLYLDRYMHRNREITRIKREEIKRLKDYLTVLQQRLERYLSYGSGPKRFPLVDVLQYALEFASSKPVGSGRHITEEELSVLESCLHRWRTEIENDTRDLQESISRIHRTIELMYSDKSMIQVPYRLHAVLVHEGQANAGHYWAYIFDHRESRWMKYNDIAVTKSSWEELVRDSFGGYRNASAYCLMYINDKAQFLIQEEFNKETGQPLVGIETLPPDLRDFVEEDNQRFEKELEEWDAQLAQKALQEKLLASQKLRESETSVTTAQAAGDPEYLEQPSRSDFSKHLKEETIQIITKASHEHEDKSPETVLQSAIKLEYARLVKLAQEDTPPETDYRLHHVVVYFIQNQAPKKIIEKTLLEQFGDRNLSFDERCHNIMKVAQAKLEMIKPEEVNLEEYEEWHQDYRKFRETTMYLIIGLENFQRESYIDSLLFLICAYQNNKELLSKGLYRGHDEELISHYRRECLLKLNEQAAELFESGEDREVNNGLIIMNEFIVPFLPLLLVDEMEEKDILAVEDMRNRWCSYLGQEMEPHLQEKLTDFLPKLLDCSMEIKSFHEPPKLPSYSTHELCERFARIMLSLSRTPADGR", "notes": "USP25, human, from Met1 to the residue before the deletion (deletion from Cys465 to Pro537); three-amino-acid linker Gly-Ser-Gly in place of the deleted stretch; USP25, human, from the residue after the deletion to Arg1055; also called ΔIL USP25FL; not shown: Smt3, N-terminal, cleaved"}},
  "key": {"USP25 Y454E (human)": {"target": "USP25 Y454E (human) (UniProt Q9UHP3)", "assay": "SEC; oligomer state of USP25 point mutants (Supplementary Figures 6 and 11, not shown); by the methods all USP25 constructs were loaded on a Superdex 16 column in 100 mM NaCl, 20 mM Tris-HCl pH 8.0, 1 mM β-mercaptoethanol and run on native PAGE"}, "[1]": {"target": "USP25CD (human USP25 with the NTD and the CTD deleted) (human)", "assay": "SEC; analytical gel filtration of all truncation constructs run in parallel under identical conditions, Superdex 16 column, 100 mM NaCl, 20 mM Tris-HCl pH 8.0, 1 mM β-mercaptoethanol; oligomer from elution time against expected molecular weight"}, "USP25 Y454F (human)": {"target": "USP25 Y454F (human) (UniProt Q9UHP3)", "assay": "SEC; oligomer state of USP25 point mutants (Supplementary Figures 6 and 11, not shown); by the methods all USP25 constructs were loaded on a Superdex 16 column in 100 mM NaCl, 20 mM Tris-HCl pH 8.0, 1 mM β-mercaptoethanol and run on native PAGE"}, "[2]": {"target": "USP25CD ΔIL (USP25 catalytic domain construct with the IL-loop, Cys465 to Pro537, replaced by Gly-Ser-Gly) (human)", "assay": "SEC; analytical gel filtration of all truncation constructs run in parallel under identical conditions, Superdex 16 column, 100 mM NaCl, 20 mM Tris-HCl pH 8.0, 1 mM β-mercaptoethanol; oligomer from elution time against expected molecular weight"}, "[3]": {"target": "T1, USP25FL (full-length human USP25) (human), Q9UHP3", "T1 chain": "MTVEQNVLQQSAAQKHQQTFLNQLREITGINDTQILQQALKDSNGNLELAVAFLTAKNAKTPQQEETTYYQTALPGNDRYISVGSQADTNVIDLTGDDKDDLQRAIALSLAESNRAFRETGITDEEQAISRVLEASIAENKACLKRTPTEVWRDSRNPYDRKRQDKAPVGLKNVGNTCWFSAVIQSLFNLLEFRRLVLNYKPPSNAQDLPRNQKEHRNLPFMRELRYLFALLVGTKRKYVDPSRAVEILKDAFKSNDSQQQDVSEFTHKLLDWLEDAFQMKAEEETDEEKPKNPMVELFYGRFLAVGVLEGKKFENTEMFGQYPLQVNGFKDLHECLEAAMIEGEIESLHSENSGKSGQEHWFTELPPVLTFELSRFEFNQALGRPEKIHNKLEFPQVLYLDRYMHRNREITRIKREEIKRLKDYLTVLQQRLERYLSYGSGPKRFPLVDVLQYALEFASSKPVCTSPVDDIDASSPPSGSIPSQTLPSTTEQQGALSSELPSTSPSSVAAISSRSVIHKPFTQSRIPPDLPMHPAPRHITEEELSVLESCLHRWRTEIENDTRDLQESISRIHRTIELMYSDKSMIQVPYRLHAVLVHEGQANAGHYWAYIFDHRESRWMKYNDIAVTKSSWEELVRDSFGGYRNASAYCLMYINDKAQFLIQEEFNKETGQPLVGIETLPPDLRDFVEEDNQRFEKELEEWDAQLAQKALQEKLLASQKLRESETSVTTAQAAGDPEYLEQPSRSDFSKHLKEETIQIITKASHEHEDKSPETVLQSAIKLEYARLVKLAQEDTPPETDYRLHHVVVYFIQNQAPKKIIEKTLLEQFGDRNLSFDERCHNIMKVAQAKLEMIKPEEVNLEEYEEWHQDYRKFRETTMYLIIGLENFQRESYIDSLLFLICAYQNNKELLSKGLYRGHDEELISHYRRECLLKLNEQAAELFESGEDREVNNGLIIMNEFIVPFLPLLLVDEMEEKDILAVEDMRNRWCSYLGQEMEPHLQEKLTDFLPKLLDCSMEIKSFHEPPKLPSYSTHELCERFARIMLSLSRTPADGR", "assay": "SEC; analytical gel filtration of all truncation constructs run in parallel under identical conditions, Superdex 16 column, 100 mM NaCl, 20 mM Tris-HCl pH 8.0, 1 mM β-mercaptoethanol; oligomer from elution time against expected molecular weight", "settings": "remark: other sources report otherwise"}, "[4]": {"target": "the molecule itself", "assay": "SEC; purification of USP25NCD: preparative Superdex 200 gel filtration, anion exchange of the two peak fractions, analytical gel filtration (Superdex 16) of the dimer and tetramer fractions; 100 mM NaCl, 20 mM Tris-HCl pH 8.0, 1 mM β-mercaptoethanol"}, "[5]": {"target": "the molecule itself", "assay": "SEC; analytical gel filtration of all truncation constructs run in parallel under identical conditions, Superdex 16 column, 100 mM NaCl, 20 mM Tris-HCl pH 8.0, 1 mM β-mercaptoethanol; oligomer from elution time against expected molecular weight"}},
  "note": "Values joined by “and” are separate entries in the source; they are usually repeats but may differ in a detail not shown here. Identical values can stand only once.",
  "data": [
    {"molecule": "USP25 Y454E (from UniProt Q9UHP3 1-1055) (enzyme)", "values": [
      {"measurement": "stoichiometry N", "setting": "USP25 Y454E (human)", "result": 2}
    ]},
    {"molecule": "USP25CD (human USP25 with the NTD and the CTD deleted) (domain or fragment)", "values": [
      {"measurement": "stoichiometry N", "setting": "[1]", "result": 4}
    ]},
    {"molecule": "USP25 Y454F (from UniProt Q9UHP3 1-1055) (enzyme)", "values": [
      {"measurement": "stoichiometry N", "setting": "USP25 Y454F (human)", "result": 4}
    ]},
    {"molecule": "USP25CD ΔIL (USP25 catalytic domain construct with the IL-loop, Cys465 to Pro537, replaced by Gly-Ser-Gly) (domain or fragment)", "values": [
      {"measurement": "stoichiometry N", "setting": "[2]", "result": 2}
    ]},
    {"molecule": "B1", "values": [
      {"measurement": "stoichiometry N", "setting": "[3]", "result": 4}
    ]},
    {"molecule": "B2", "values": [
      {"measurement": "stoichiometry N", "setting": "[4]", "result": "2 and 4"}
    ]},
    {"molecule": "B3", "values": [
      {"measurement": "stoichiometry N", "setting": "[5]", "result": 2}
    ]},
    {"molecule": "B4", "values": [
      {"measurement": "stoichiometry N", "setting": "[5]", "result": 2}
    ]}
  ]
}
